Results reported in US20110275569A1 (CONSIGLIO NAZIONALE DELLE RICERCHE, published 2011).
Where no end group is shown, it is not given here.

What was measured:
[1] = molecular target: T1, porcine acylamino-acid-releasing enzyme (AARE or APEH) (porcine, UniProt P19205 1-732, limits assumed); test: enzyme inhibition kinetics, Lineweaver-Burk plot, competitive inhibition
T1 construct: also called porcine APEH; porcine AARE
T1 sequence (looked up): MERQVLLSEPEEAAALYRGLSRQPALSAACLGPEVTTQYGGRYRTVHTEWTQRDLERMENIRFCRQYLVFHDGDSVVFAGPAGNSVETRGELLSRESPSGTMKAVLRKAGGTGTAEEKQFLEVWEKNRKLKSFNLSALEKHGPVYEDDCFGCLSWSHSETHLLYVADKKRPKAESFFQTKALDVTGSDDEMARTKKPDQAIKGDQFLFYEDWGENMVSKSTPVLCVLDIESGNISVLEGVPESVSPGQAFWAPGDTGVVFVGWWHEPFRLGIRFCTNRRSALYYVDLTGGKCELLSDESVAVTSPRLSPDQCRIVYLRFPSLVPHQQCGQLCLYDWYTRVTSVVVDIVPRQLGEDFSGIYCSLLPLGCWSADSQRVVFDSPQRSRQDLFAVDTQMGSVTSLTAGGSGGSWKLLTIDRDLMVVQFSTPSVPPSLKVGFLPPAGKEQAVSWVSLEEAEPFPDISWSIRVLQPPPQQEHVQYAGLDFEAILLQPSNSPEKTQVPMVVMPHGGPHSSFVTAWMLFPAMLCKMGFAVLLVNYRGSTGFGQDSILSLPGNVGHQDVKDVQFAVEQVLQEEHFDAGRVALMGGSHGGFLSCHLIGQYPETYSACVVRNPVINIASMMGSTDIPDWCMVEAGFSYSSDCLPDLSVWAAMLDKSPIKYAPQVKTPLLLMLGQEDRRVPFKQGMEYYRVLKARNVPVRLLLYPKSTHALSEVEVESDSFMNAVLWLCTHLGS

[2] = molecular target: T1, porcine acylamino-acid-releasing enzyme …; test: cell-based or functional assay
[3] = molecular target: T2, human acylamino-acid-releasing enzyme (AARE or APEH) (human, UniProt P13798 1-732, limits assumed); test: cell-based or functional assay
T2 sequence (looked up): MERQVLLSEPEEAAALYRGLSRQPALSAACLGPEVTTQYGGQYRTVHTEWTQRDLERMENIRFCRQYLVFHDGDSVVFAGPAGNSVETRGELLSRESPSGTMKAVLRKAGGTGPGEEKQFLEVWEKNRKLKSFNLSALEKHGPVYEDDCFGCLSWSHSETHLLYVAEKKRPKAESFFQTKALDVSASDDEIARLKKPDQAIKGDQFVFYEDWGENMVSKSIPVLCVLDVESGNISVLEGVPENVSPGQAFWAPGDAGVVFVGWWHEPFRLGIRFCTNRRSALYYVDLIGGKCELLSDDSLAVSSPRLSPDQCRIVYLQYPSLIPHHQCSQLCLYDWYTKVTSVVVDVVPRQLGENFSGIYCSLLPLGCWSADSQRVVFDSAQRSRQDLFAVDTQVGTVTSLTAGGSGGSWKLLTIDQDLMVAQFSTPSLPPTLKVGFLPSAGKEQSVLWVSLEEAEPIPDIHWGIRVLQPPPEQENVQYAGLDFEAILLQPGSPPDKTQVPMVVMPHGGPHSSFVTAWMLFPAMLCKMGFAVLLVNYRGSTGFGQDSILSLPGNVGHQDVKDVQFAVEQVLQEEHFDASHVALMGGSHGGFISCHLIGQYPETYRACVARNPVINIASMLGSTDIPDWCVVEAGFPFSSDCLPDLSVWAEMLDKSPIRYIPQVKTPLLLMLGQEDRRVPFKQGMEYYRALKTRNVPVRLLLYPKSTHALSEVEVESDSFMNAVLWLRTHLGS

[4] = molecular target: T1, porcine acylamino-acid-releasing enzyme …; test: cell-based or functional assay; remark: listed apart in the source
[5] = molecular target: T1, porcine acylamino-acid-releasing enzyme …; test: enzyme inhibition kinetics with N-acetyl-Ala-pNA as substrate
[6] = molecular target: T3, bovine alpha-chymotrypsin (bovine, UniProt P00766 1-13; P00766 16-146; P00766 149-245); test: cell-based or functional assay
porcine elastase [7] = molecular target: T4, porcine elastase (porcine, UniProt P00772 27-266); test: cell-based or functional assay
[8] = molecular target: T2, human acylamino-acid-releasing enzyme …; test: cell-based or functional assay; remark: listed apart in the source
[9] = molecular target: T3, bovine alpha-chymotrypsin; test: enzyme inhibition kinetics, double reciprocal (Lineweaver-Burk) plot, competitive inhibition
Description: The reciprocals of the rate of the substrate hydrolysis for each inhibitor concentration were plotted against the reciprocals of the substrate concentrations. Ki was determined from the formula as per the competitive type of inhibition.

porcine elastase [10] = molecular target: T4, porcine elastase; test: enzyme inhibition kinetics, double reciprocal plot
[11] = molecular target: T3, bovine alpha-chymotrypsin; test: cell-based or functional assay; remark: listed apart in the source
porcine elastase [12] = molecular target: T4, porcine elastase; test: cell-based or functional assay; remark: listed apart in the source

T4 sequence (P00772 27-266 limits assumed): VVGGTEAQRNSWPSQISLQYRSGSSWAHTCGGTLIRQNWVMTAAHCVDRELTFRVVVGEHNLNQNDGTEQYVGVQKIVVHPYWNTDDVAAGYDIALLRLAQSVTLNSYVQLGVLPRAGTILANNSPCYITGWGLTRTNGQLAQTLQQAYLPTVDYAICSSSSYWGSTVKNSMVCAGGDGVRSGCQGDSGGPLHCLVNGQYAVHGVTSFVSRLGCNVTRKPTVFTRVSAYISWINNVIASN

TILAEIKNINAD-NH2 (also called Peptide 4) [Compound 4 or SsCEI 4]
Ki [1]: 4000 nM | IC50 [2]: 35000 nM | IC50 [3]: 35000 nM

YAIDTILAEIKNINAD-NH2 (also called Peptide 3) [Compound 3 or SsCEI 3]
IC50 values [4]: 20000 nM | IC50 [2]: 25000 nM | IC50 [3]: 25000 nM | Ki [5]: 20000 nM

B1: recombinant S. solfataricus inhibitor Sso0767 (SsCEI) (other)
chain: MNSESIYSMRVVSSAFKNEDFIPIKYTCDGQDLSPELEWDLVTNAKSYAIIVEDPDAPGGTFIHWVIYNITTNRLPEGVPRLYKSQYGVQGVNDFGNIGYNGPCPPKTHPPHRYYFYVYAIDTILLEIKNINADKLKSLMEGHGIERGFVMGKYKRK
notes: The filling uses Sso0767, Sso1273 and SsCEI for the same protein; also called Sso1273; not shown: C-terminal His tag from expression vector pET-28
IC50 value (50% inhibitory concentration) [6]: 100 nM | IC50 value (porcine elastase [7]): 150 nM | IC50 value at 37° C. [8]: 20 nM | Ki [9]: 80 nM | Ki (porcine elastase [10]): 100 nM | IC50 [11]: 25 nM | IC50 (porcine elastase [12]): 40 nM
